We go through two substances from patent US20170129921A1.

The assay addresses Human C5a receptor 2 (human) (UniProt Q9P296). Kind of assay: 125I-C5a displacement, SPA on Flp-In CHO-C5a2 membranes.

Human C5a receptor 2 (human), sequence (Q9P296 whole entry): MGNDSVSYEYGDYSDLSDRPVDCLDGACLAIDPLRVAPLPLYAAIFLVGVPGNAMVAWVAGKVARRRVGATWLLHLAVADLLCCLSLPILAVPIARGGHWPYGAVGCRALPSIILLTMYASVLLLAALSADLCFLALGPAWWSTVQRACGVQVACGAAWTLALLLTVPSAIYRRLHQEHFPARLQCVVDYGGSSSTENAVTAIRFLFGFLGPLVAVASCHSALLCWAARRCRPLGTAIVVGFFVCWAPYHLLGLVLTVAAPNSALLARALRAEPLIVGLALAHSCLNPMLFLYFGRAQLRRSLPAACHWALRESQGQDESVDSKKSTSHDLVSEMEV
Human isolated C3a, P01024 672-748 (ligand; other documents disagree on this pair), sequence (P01024 672-748): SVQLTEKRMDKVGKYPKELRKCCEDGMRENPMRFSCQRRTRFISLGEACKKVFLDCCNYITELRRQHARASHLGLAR
Human isolated C3a-des Arg, P01024 672-747 (ligand; other documents disagree on this pair), sequence (P01024 672-747 limits assumed): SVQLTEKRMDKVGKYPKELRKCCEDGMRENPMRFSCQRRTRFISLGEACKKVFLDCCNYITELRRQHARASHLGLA

One may read the Ki as the dissociation constant of the complex between target and ligand, obtained from inhibition or displacement. Higher therefore signals lower affinity. With “Human isolated C3a, P01024 672-748 (ligand; other documents disagree on this pair)”, the inhibition constant (Ki) was > 1000 nM.
As for “Human isolated C3a-des Arg, P01024 672-747 (ligand; other documents disagree on this pair)”, the figure is > 1000 nM.
